The source of these data is PMC9947773, “Modeling C3 glomerulopathies: C3 convertase regulation on an extracellular matrix surface” (Frontiers in Immunology, 2022).

The target in the test is T1, C3b (human, UniProt P01024 23-667; P01024 749-1663).
T1 construct: complement C3, human; beta chain of C3b; alpha' chain of C3b (alpha chain without C3a); Coated on MaxGel (ECM) in microtiter wells at 130 ug/ml; also called purified C3b; source: bought: Complement Technology Inc., purified
Put plainly: C3 convertase formation assay (C3CFA), elution and western blot for Bb; C3b coated on MaxGel; FB + FD with Factor H or a Factor H variant as reactant (22.5 ug/ml), 10 min at 37°C; washed x3; eluted. Conditions: both partners purified.

T1 sequence (P01024 23-667, chain 1 of 2): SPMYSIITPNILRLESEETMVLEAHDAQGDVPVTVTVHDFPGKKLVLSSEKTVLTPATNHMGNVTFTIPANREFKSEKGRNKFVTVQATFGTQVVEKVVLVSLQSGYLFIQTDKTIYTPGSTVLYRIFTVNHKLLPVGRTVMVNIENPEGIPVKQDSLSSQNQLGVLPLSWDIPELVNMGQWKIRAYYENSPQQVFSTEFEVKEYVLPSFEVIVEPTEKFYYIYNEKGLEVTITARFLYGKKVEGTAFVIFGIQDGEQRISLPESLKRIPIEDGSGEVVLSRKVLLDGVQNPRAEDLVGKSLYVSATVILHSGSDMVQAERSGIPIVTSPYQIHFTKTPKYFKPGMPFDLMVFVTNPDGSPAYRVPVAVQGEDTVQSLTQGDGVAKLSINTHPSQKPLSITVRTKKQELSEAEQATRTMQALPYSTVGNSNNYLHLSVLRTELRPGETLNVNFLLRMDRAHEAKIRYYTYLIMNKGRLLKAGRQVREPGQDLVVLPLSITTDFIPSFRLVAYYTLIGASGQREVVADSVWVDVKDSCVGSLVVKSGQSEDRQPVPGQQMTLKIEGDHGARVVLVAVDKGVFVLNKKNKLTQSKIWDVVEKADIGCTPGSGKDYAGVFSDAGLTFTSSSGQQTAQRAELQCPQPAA
T1 sequence (P01024 749-1663, chain 2 of 2): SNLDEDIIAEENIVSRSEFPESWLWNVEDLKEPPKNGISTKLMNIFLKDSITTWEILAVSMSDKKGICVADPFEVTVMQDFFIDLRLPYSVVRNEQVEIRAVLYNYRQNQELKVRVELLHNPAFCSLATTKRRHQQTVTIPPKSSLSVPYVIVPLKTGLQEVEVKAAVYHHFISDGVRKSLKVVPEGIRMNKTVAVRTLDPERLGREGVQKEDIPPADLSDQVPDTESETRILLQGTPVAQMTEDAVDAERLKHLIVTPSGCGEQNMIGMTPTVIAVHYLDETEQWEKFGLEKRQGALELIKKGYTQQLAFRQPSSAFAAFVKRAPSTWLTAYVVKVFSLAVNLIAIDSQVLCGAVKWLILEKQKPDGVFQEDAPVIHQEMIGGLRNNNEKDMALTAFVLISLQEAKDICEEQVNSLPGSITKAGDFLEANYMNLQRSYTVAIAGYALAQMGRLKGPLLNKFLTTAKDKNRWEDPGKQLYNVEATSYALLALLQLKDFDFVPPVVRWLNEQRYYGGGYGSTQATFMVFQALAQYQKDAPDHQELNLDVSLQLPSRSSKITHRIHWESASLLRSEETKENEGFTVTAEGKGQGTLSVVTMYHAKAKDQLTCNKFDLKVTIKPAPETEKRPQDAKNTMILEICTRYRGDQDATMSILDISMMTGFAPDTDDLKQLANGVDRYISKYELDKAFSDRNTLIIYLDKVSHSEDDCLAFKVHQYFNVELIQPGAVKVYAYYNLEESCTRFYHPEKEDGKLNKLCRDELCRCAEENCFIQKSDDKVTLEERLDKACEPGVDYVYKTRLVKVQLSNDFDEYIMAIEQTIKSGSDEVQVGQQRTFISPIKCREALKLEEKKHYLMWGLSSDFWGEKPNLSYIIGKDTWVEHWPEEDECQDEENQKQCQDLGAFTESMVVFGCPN

B1: Factor H (natural protein, human, UniProt P08603 19-1231, looked up)
chain: EDCNELPPRRNTEILTGSWSDQTYPEGTQAIYKCRPGYRSLGNVIMVCRKGEWVALNPLRKCQKRPCGHPGDTPFGTFTLTGGNVFEYGVKAVYTCNEGYQLLGEINYRECDTDGWTNDIPICEVVKCLPVTAPENGKIVSSAMEPDREYHFGQAVRFVCNSGYKIEGDEEMHCSDDGFWSKEKPKCVEISCKSPDVINGSPISQKIIYKENERFQYKCNMGYEYSERGDAVCTESGWRPLPSCEEKSCDNPYIPNGDYSPLRIKHRTGDEITYQCRNGFYPATRGNTAKCTSTGWIPAPRCTLKPCDYPDIKHGGLYHENMRRPYFPVAVGKYYSYYCDEHFETPSGSYWDHIHCTQDGWSPAVPCLRKCYFPYLENGYNQNYGRKFVQGKSIDVACHPGYALPKAQTTVTCMENGWSPTPRCIRVKTCSKSSIDIENGFISESQYTYALKEKAKYQCKLGYVTADGETSGSITCGKDGWSAQPTCIKSCDIPVFMNARTKNDFTWFKLNDTLDYECHDGYESNTGSTTGSIVCGYNGWSDLPICYERECELPKIDVHLVPDRKKDQYKVGEVLKFSCKPGFTIVGPNSVQCYHFGLSPDLPICKEQVQSCGPPPELLNGNVKEKTKEEYGHSEVVEYYCNPRFLMKGPNKIQCVDGEWTTLPVCIVEESTCGDIPELEHGWAQLSSPPYYYGDSVEFNCSESFTMIGHRSITCIHGVWTQLPQCVAIDKLKKCKSSNLIILEEHLKNKKEFDHNSNIRYRCRGKEGWIHTVCINGRWDPEVNCSMAQIQLCPPPPQIPNSHNMTTTLNYRDGEKVSVLCQENYLIQEGEEITCKDGRWQSIPLCVEKIPCSQPPQIEHGTINSSRSSQESYAHGTKLSYTCEGGFRISEENETTCYMGKWSSPPQCEGLPCKSPPEISHGVVAHMSDSYQYGEEVTYKCFEGFGIDGPAIAKCLGEKWSHPPSCIKTDCLSLPSFENAIPMGEKKDVYKAGEQVTYTCATYYKMDGASNVTCINSRWTGRPTCRDTSCVNPPTVQNAYIVSRQMSKYPSGERVRYQCRSPYEMFGDEEVMCLNGNWTEPPQCKDSTGKCGPPPPIDNGDITSFPLSVYAPASSVEYQCQNLYQLEGNKRITCRNGQWSEPPKCLHPCVISREIMENYNIALRWTAKQKLYSRTGESVEFVCKRGYRLSSRSHTLRTTCWDGKLEYPTCAKR
notes: complement factor H, human; Used at 22.5 ug/ml; also called FH; WT FH; source: bought: Complement Technology Inc
Consider B1, for which the binding result is recorded as “binds”.
